From paper doi:10.1101/2022.02.15.480489 (bioRxiv, 2022) come the findings set out here.

The data set deals with the molecule itself. Nature of the data set: fluorescence correlation spectroscopy.

B1: Ana2-mNG (Ana2 tagged with monomeric NeonGreen at the C-terminus, CRISPR/Cas9 knock-in at the endogenous locus) (natural protein)
chain: MFVPETEDMLPRLAPRPSAAVPMGHTNEIIGPTVPEVSILFGQPPQDPQMQPQQPNHAHQESSPRAAPTFASWKKQMLPRVNFSPILATELGPRTAPSSNSPCSSKEYQVMPRDRNYASDAQQTTNHMNCNAGGYNAEPKQQAYQSRRLSSSSNADVLTICAGTQTDPFNPSPPRKSLPQVVYSDIDVSNLANKSDLAALVSLVESVRHEQQQLRNLCEMILEQQQRAKPEAISKASSTTGTQCDILTTNQAGRRLSPIMQDYIAEEEEPLPPPQARVIPQFPSPRPHPPIAQSTGYRANTPQAKRIPQLAKPNTEKSMVMNELALKYLRQPVDELMKDMRLGASPKSPNPEPLRPIDNIGHAQSPNDISNASYKYLKKYRLLPEEQLEPVCPQSPMAATAPSPHIQLDLENIRNQPKLL
Take B1: the “stoichiometry N” value is about 2.

B2: mNG-Ana2 (Ana2 tagged with monomeric NeonGreen at the N-terminus, CRISPR/Cas9 knock-in at the endogenous locus) (natural protein)
chain: MFVPETEDMLPRLAPRPSAAVPMGHTNEIIGPTVPEVSILFGQPPQDPQMQPQQPNHAHQESSPRAAPTFASWKKQMLPRVNFSPILATELGPRTAPSSNSPCSSKEYQVMPRDRNYASDAQQTTNHMNCNAGGYNAEPKQQAYQSRRLSSSSNADVLTICAGTQTDPFNPSPPRKSLPQVVYSDIDVSNLANKSDLAALVSLVESVRHEQQQLRNLCEMILEQQQRAKPEAISKASSTTGTQCDILTTNQAGRRLSPIMQDYIAEEEEPLPPPQARVIPQFPSPRPHPPIAQSTGYRANTPQAKRIPQLAKPNTEKSMVMNELALKYLRQPVDELMKDMRLGASPKSPNPEPLRPIDNIGHAQSPNDISNASYKYLKKYRLLPEEQLEPVCPQSPMAATAPSPHIQLDLENIRNQPKLL
Regarding B2, the “stoichiometry N” value was about 2.

For orientation: stoichiometry N means a count of units in the complex or per binding partner.
